Results as given in US20180215829A1 (CRESCENDO BIOLOGICS, published 2018).

Columns and labels:
[1] = target: T1, human IL-17RA on HT1080 cells (human, UniProt Q96F46 33-866); experiment: cell-based or functional assay
T1 sequence: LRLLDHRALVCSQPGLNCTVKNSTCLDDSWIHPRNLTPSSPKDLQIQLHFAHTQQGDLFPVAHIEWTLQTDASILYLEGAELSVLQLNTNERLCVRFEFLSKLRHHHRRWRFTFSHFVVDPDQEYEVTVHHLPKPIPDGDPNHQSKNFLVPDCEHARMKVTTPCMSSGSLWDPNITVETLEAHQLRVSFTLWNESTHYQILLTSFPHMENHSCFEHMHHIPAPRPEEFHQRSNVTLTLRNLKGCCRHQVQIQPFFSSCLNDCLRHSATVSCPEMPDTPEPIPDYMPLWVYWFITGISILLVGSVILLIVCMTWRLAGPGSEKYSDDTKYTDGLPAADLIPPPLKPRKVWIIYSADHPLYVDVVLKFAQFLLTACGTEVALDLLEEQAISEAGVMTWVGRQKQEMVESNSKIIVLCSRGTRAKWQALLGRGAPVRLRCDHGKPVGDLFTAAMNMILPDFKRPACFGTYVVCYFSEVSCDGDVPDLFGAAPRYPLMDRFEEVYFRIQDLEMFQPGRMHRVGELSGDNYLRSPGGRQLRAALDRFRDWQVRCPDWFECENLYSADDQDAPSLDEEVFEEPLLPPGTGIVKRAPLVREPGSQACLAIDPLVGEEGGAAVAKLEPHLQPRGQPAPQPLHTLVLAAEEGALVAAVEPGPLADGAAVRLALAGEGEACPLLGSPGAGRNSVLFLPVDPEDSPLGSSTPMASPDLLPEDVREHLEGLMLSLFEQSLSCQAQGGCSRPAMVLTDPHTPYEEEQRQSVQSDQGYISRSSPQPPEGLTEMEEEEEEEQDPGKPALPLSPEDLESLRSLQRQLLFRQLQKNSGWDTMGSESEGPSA

[2] = target: T2, recombinant human IL-17RA Fc fusion protein (R&D Systems 177-IR-100) (human, UniProt Q96F46 33-320); experiment: BIAcore T200 single-cycle kinetics, IL-17RA-Fc captured on protein G chip, VH as analyte
T2 construct: Bought protein; not shown: Fc domain of human IgG1
T2 sequence: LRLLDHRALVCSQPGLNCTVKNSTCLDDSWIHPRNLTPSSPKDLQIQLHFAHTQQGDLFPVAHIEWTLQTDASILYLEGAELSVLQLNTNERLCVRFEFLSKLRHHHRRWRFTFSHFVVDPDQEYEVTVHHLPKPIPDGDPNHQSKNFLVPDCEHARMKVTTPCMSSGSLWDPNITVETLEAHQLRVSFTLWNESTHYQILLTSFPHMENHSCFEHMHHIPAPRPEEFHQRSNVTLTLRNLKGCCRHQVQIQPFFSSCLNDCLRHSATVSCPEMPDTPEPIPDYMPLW
Description: Binding kinetics of anti-IL-17RA VH antibodies were measured on a BIAcore® T200 instrument. For IL-17RA, first a protein G chip was prepared by diluting protein G to 20 ug/ml in acetate buffer, pH 4 (BIAcore®, cat# BR-100-49) and then coupled 1200 RU to a CM5 Series S chip using amine coupling chemistry. This surface was then used to capture IL-17RA Fc fusion protein from solution: IL-17RA at 10 ug/ml in HBS injected for 10 seconds at 30 ul/min flow rate would capture approximately 100-150 RU of IL-17RA onto the protein G surface.
Binding kinetics of anti-IL-17RA VH antibodies were determined by single-cycle kinetics. VH antibodies were prepared in dilution series (typically 1:3 dilution series starting with 100 nM VH at the highest concentration), and then injected over the antigen coated surfaces and also a blank surface, starting with the lowest concentration of VH and then working progressively up to the highest concentration. VH binding kinetics were then determined from the (blank subtracted) sensorgram traces using 1:1 binding models and BIAevaluation software.

B1: VH clone 2.1 (VHH)
VHH: QVQLVQSGAEVKKPGASVKVSCKASGYPFTSYDINWVRQATGQSLEWMGWMNPNSGDTVYAQKFQGRVTMTRNTSISTAYMELSSLRSEDTAVYFCARGRRDDWKNNYWGQGTLVTVSS
notes: Human VH single domain antibody, no light chain; Parent clone of family 2; also called VH 2.1
IC50 (nM), cell-based assay [1]: 363 nM | Kd [2]: 7 nM
